Experimental data published in patent US7098025B1, “Human peroxisome proliferator activated receptor gamma (pparγ) gene regulatory sequences and uses therefor” (Ligand Pharmaceuticals Incorporated, priority 1997, dated 2006).

Columns and labels:
[1] = tested on: human PPARγ2 promoter; assay: pGL3γ2p1000 luciferase reporter cotransfection; type: cell-based; details: expression vector cotransfected
Source text: (§1) To assess whether ADD-1 regulates the expression of the hPPARγ3 mRNA, we cotransfected either an expression plasmid coding for ADD-1 together with the pGL3γ3p800 luciferase reporter vector. When Hep G2 cells were cotransfected with the ADD-1 expression vector, the luciferase activity was increased at least 4-fold relative to the basal activity of the hPPARγ3 promoter.
A 1-kb fragment of PAC clone 8856 was isolated by PCR using the oligonucleotides LF-35 (binding antisense in the PPARγ2 5′-UTR) and the oligonucleotide LF-58 (binding sense at position −1000 of the PPARγ2), was sequenced, and was inserted into EcoRV site of pBluescript (Stratagene, La Jolla, Calif.). After digestion of plasmid pBS γ2p1000 with SmaI and KpnI, the insert was cloned into the reporter vector pGL3 (Promega), creating the expression vector pGL3γ2p1000.
(§2) Site-directed mutagenesis of the E-box in the PPARγ3 promoter was performed by splicing overlapping ends polymerase chain reaction (Ho, et al., Gene 77:51–59 (1989)), using the oligo pairs LF-106/LF-60 and LF-107/LF-68, to generate the plasmid pGL3γ3p800-E-boxmut. […]

[2] = tested on: PPARγ mRNA; assay: RNase protection assay of endogenous PPARγ mRNA in electroporated Hep G2 cells; type: cell-based, human; details: Hep G2 cells electroporated with expression vector; 48 hr after transfection
Source text: To investigate whether ADD-1/SREBP-1 expression was sufficient to regulate the expression of the endogeneous PPARγ3 mRNA, Hep G2 cells were electroporated with vectors expressing either SREBP-1a (Yokoyama et al., Cell 75:187–197 (1993)) or ADD-1 (Tontonoz et al., Mol. Cell. Biol. 13:4753–4759 (1993)). RNA was extracted 48 hr after transfection and analysed by RNase protection assay for the presence of PPARγ mRNA.
The absolute mRNA concentration of the differentially spliced PPARγ variants was measured by RNase protection assay exactly as described (Lemberger et al., J. Biol. Chem. 271:1764–1769 (1995)). The full lenght PPARγ2 coding region plus 33 bp of the 5′ UTR was amplified from human adipose tissue RNA by RT-PCR with the primer pair LF-3/LF-36 and was inserted in the inverted orientation (3′ to 5′ in front of the T7 promoter) into the EcoRI site of the expression vector pSG5 (Stratagene, La Jolla, Calif.). The resulting plasmid pSG5-hPPARγ2-inv was digested with EcoRV and religated, yielding the vector pSG5-hPPARγ2-RPA, which was used as a template for the synthesis of the anti-sense RNA probe, to measure the relative amounts of PPARγ2 relative to PPARγ1 and 3 mRNA. […]

[3] = tested on: PPARγ mRNA; assay: RNase protection assay of PPARγ mRNA in retrovirally infected 3T3-L1 cells; type: cell-based, mouse; details: 3T3-L1 preadipocytes and adipocytes; retroviral ectopic expression
Protocol: To study the effects of ADD-1 on PPARγ expression in more detail, either an empty retroviral vector pBabe or the same vector encoding for full length ADD-1 or the superactive ADD-1-403 form were introduced into 3T3-L1 cells via retroviral infection. […] Infected cells were then cultured to confluence and consecutively treated with differentiation medium. Total RNA was isolated at confluence (preadipocytes) and at day 6 after confluence (adipocytes) from the cells expressing either the empty pBabe vector or the same vector encoding for ADD-1 or ADD-1-403, a truncated form of ADD-1, equivalent to the proteolytically activated protein, which lacks the membrane anchoring domain. […] The effect of retroviral infection was more pronounced in 3T3-L1 adipocytes relative to preadipocytes.
Control cells received vehicle only.
The absolute mRNA concentration of the differentially spliced PPARγ variants was measured by RNase protection assay exactly as described (Lemberger et al., J. Biol. Chem. 271:1764–1769 (1995)). The full lenght PPARγ2 coding region plus 33 bp of the 5′ UTR was amplified from human adipose tissue RNA by RT-PCR with the primer pair LF-3/LF-36 and was inserted in the inverted orientation (3′ to 5′ in front of the T7 promoter) into the EcoRI site of the expression vector pSG5 (Stratagene, La Jolla, Calif.). […]

[4] = tested on: hPPARγ3 promoter; assay: pGL3γ3p800 luciferase reporter cotransfection in Hep G2 cells; type: cell-based, human; details: E-box mutated
Source text: as §1
A 800 bp fragment of the PAC clone 8856 was isolated by PCR using the amplimers LF-60 (binding to the antisense strand in exon A2) and LF-68 (binding sense at position −800 of the PPARγ3 promoter). This PCR fragment was sequenced, inserted into the EcoRV site of pBluescript SK+ (Stratagene, La Jolla, USA), and after SpeI and KpnI restriction subcloned into pGL3 (Promega, Madison, USA), creating the reporter vector pGL3γ3p800.
as §2

[5] = tested on: human PPARγ1 promoter; assay: pGL3γ1p3000 luciferase reporter cotransfection; type: cell-based; details: expression vector cotransfected
Source text: as §1
To isolate the PPARγ1 promoter, an 8-kb EcoRI fragment, which hybridized with the oligonucleotide LF-2 (corresponding to the 5′-UTR of γ1), was cloned into pBluescript. […] To test for promoter activity, a SacI/XhoI digestion of this clone containing the 3-kb promoter was inserted in the same sites of pGL3, resulting in the final vector pGL3 γ1p3000. The pSG5-haPPARγ (39) and pMSV-C/EBPβ (10) expression vectors were described elsewhere. Transfections were carried out in 60-mm plates using standard calcium phosphate precipitation techniques (for 3T3-L1, CV-1, and COS cells) (22). Luciferase and […] assays were carried out exactly as described previously (22).
as §2

B1: ADD-1: basic helix-loop-helix leucine zipper transcription factor, expressed from a cotransfected, electroporated or retroviral vector (protein, UniProt P56720 1-1134, looked up)
Sterol regulatory …: MDELPFGEAALEQALAEVCEMDAALLTDIEDMLQLINNQDSDFPGLFDAPYAGGETGDTGPSSPGASSPESFSSPASLGSSLEAFLGGPKVTPAPLSPPPSAPTAVKMYPSVPPFSPGPGIKEEPVPLTILQPPAPQPSPGTLLPPSFPPPPVQLSPAPVLGYSSLPSGFSGTLPGNTQQTPSSLPLGSTPGISPTPLHTQVQSSAAQQPPPASAAPRMSTVASQIQQVPVVLQPHFIKADSLLLTAVKTDTGATMKTAGINTLAPGTAVQAGPLQTLVSGGTILATVPLVVDTDKLPIHRLAAGGKALGSAQSRGEKRTAHNAIEKRYRSSINDKIVELKDLVVGTEAKLNKSAVLRKAIDYIRFLQHSNQKLKQENLTLRSAHKSKSLKDLVSACGSGGGTDVSMEGMKPEVVETLTPPPSDAGSPSQSSPLSLGSRGSSSGGSDSEPDSPAFEDNQVKAQRLPSHSRGMLDRSRLALCVLVFLCLTCNPLASLFGWGILTPSDASGVHRSSGRSMLEAESRDGSNWTQWLLPPLVWLANGLLVLACLALLFVYGEPVTRPHSGPAVHFWRHRKQADLDLARGDFAQAAQQLWLALQALGRPLPTSNLDLACSLLWNLVRHLLQRLWVGRWLAGQAGGLQRDYRLRKDARASARDAAVVYHKLHQLHAMGKYTGGHLVASNLALSALNLAECAGDAISMATLAEIYVAAALRVKTSLPRALHFLTRFFLSSARQACLAQSGAVPLAMQWLCHPVGHRFFVDGDWAVHGAPQESLYSVAGNPVDPLAQVTRLFCEHLLERALNCIAQPSPGAADGDREFSDALGYLQLLNSCSDAVGAPACSFSVSSSMATTTGTDPVAKWWASLTAVVIHWLRRDEEAAERLYPLVEHIPQVLQETERPLPRAALYSFKAARALLDHRKVESSPASLAICEKASGYLRDSLASTSTASSIDKAMQLLLCDLLLVARTSLWRRQQSAASAQGAHGTSNGPQASALELRGFQHDLSSLRRLAQSFRPAMRRVFLHEATARLMAGASPARTHQLLDRSLRRRAGSSGKGGAAAELEPRPTWREHTEALLLASCYLPPAFLSAPGQRVSMLAEAARTVEKLGDHRLLLDCQQMLLRLGGGTTVTSS
For B1, the “activity of pGL3γ2p1000 reporter construct” value [1] was “unaffected”, the “PPARγ1 mRNA increase” value [2] was “approximately 3 fold” and the “expression of PPARγ mRNA” value [3] was “induced”. The “stimulation of mutated pGL3γ3p800-E-boxmut reporter vector” value [4] was “unable to stimulate” and the “activity of pGL3γ1p3000 reporter construct” value [5] was “unaffected”.
